Experimental data reported in patent publication US20240252614A1.

Key:
Settings in all cases: remark: other sources report otherwise
[1] = target: hMPV A F WT Control (hMPV A), Q6WB98; experiment: BLI, no stress
hMPV044 (hMPV A), Q6WB98 [2] = experiment: BLI, no stress
hMPV049 (hMPV A), Q6WB98 [3] = experiment: BLI, no stress
hMPV050 (hMPV A), Q6WB98 [4] = experiment: BLI, no stress
hMPV052 (hMPV A), Q6WB98 [5] = experiment: BLI, no stress
hMPV054 (hMPV A), Q6WB98 [6] = experiment: BLI, no stress
hMPV059 (hMPV A), Q6WB98 [7] = experiment: BLI, no stress
hMPV061 (hMPV A), Q6WB98 [8] = experiment: BLI, no stress
hMPV062 (hMPV A), Q6WB98 [9] = experiment: BLI, no stress
hMPV066 (hMPV A), Q6WB98 [10] = experiment: BLI, no stress
hMPV067 (hMPV A), Q6WB98 [11] = experiment: BLI, no stress
hMPV068 (hMPV A), Q6WB98 [12] = experiment: BLI, no stress
hMPV077 (hMPV A), Q6WB98 [13] = experiment: BLI, no stress
[14] = target: hMPV A F WT Control (hMPV A), Q6WB98; experiment: BLI, 53C stress
hMPV043 (hMPV A), Q6WB98 = experiment: BLI, 53C stress
hMPV044 (hMPV A), Q6WB98 [15] = experiment: BLI, 53C stress
hMPV045 (hMPV A), Q6WB98 = experiment: BLI, 53C stress
hMPV046 (hMPV A), Q6WB98 = experiment: BLI, 53C stress
hMPV047 (hMPV A), Q6WB98 = experiment: BLI, 53C stress
hMPV048 (hMPV A), Q6WB98 = experiment: BLI, 53C stress
hMPV049 (hMPV A), Q6WB98 [16] = experiment: BLI, 53C stress
hMPV050 (hMPV A), Q6WB98 [17] = experiment: BLI, 53C stress
hMPV052 (hMPV A), Q6WB98 [18] = experiment: BLI, 53C stress
hMPV053 (hMPV A), Q6WB98 = experiment: BLI, 53C stress
hMPV054 (hMPV A), Q6WB98 [19] = experiment: BLI, 53C stress
hMPV055 (hMPV A), Q6WB98 = experiment: BLI, 53C stress
hMPV058 (hMPV A), Q6WB98 = experiment: BLI, 53C stress
hMPV059 (hMPV A), Q6WB98 [20] = experiment: BLI, 53C stress
hMPV060 (hMPV A), Q6WB98 = experiment: BLI, 53C stress
hMPV061 (hMPV A), Q6WB98 [21] = experiment: BLI, 53C stress
hMPV062 (hMPV A), Q6WB98 [22] = experiment: BLI, 53C stress
hMPV063 (hMPV A), Q6WB98 = experiment: BLI, 53C stress
hMPV066 (hMPV A), Q6WB98 [23] = experiment: BLI, 53C stress
hMPV067 (hMPV A), Q6WB98 [24] = experiment: BLI, 53C stress
hMPV068 (hMPV A), Q6WB98 [25] = experiment: BLI, 53C stress
hMPV069 (hMPV A), Q6WB98 = experiment: BLI, 53C stress
hMPV071 (hMPV A), Q6WB98 = experiment: BLI, 53C stress
hMPV075 (hMPV A), Q6WB98 = experiment: BLI, 53C stress
hMPV077 (hMPV A), Q6WB98 [26] = experiment: BLI, 53C stress
hMPV079 (hMPV A), Q6WB98 = experiment: BLI, 53C stress
hMPV081 (hMPV A), Q6WB98 = experiment: BLI, 53C stress
hMPV082 (hMPV A), Q6WB98 = experiment: BLI, 53C stress
hMPV088 (hMPV A), Q6WB98 = experiment: BLI, 53C stress
hMPV097 (hMPV A), Q6WB98 = experiment: BLI, 53C stress

B1: MPE8 mAb (antibody, V domains shown)
VH: EVQLVESGGGLVKPGGSLRLSCAASGFTFSSYSMNWVRQAPGKGLEWVSSISASSSYSDYADSAKGRFTISRDNAKTSLFLQMNSLRAEDTAIYFCARARATGYSSITPYFDIWGQGTLVTVSS
VL: QSVVTQTPSVSGAPGQRVTISCTGSSSNIGAGYDVHWYQQLPGTAPKLLIYDNNNRPSGVPDRFSASKSGTSASLAITGLQAEDEADYYCQSYDRNLSGVFGTGTKVTVL
Response Shift [1]: 0.69 nm
Response Shift (hMPV044 (hMPV A), Q6WB98 [2]): 0.72 nm
Response Shift (hMPV049 (hMPV A), Q6WB98 [3]): 0.672 nm
Response Shift (hMPV050 (hMPV A), Q6WB98 [4]): 0.641 nm
Response Shift (hMPV052 (hMPV A), Q6WB98 [5]): 0.716 nm
Response Shift (hMPV054 (hMPV A), Q6WB98 [6]): 0.73 nm
Response Shift (hMPV059 (hMPV A), Q6WB98 [7]): 0.666 nm
Response Shift (hMPV061 (hMPV A), Q6WB98 [8]): 0.813 nm
Response Shift (hMPV062 (hMPV A), Q6WB98 [9]): 0.713 nm
Response Shift (hMPV066 (hMPV A), Q6WB98 [10]): 0.779 nm
Response Shift (hMPV067 (hMPV A), Q6WB98 [11]): 0.744 nm
Response Shift (hMPV068 (hMPV A), Q6WB98 [12]): 0.738 nm
Response Shift (hMPV077 (hMPV A), Q6WB98 [13]): 0.706 nm
Response Shift [14]: -0.017 nm
Response Shift (hMPV043 (hMPV A), Q6WB98): 0.01 nm
Response Shift (hMPV044 (hMPV A), Q6WB98 [15]): 0.534 nm
Response Shift (hMPV045 (hMPV A), Q6WB98): -0.025 nm
Response Shift (hMPV046 (hMPV A), Q6WB98): -0.012 nm
Response Shift (hMPV047 (hMPV A), Q6WB98): -0.051 nm
Response Shift (hMPV048 (hMPV A), Q6WB98): -0.056 nm
Response Shift (hMPV049 (hMPV A), Q6WB98 [16]): -0.065 nm
Response Shift (hMPV050 (hMPV A), Q6WB98 [17]): -0.014 nm
Response Shift (hMPV052 (hMPV A), Q6WB98 [18]): -0.045 nm
Response Shift (hMPV053 (hMPV A), Q6WB98): -0.032 nm
Response Shift (hMPV054 (hMPV A), Q6WB98 [19]): -0.064 nm
Response Shift (hMPV055 (hMPV A), Q6WB98): -0.078 nm
Response Shift (hMPV058 (hMPV A), Q6WB98): -0.05 nm
Response Shift (hMPV059 (hMPV A), Q6WB98 [20]): -0.039 nm
Response Shift (hMPV060 (hMPV A), Q6WB98): -0.06 nm
Response Shift (hMPV061 (hMPV A), Q6WB98 [21]): -0.059 nm
Response Shift (hMPV062 (hMPV A), Q6WB98 [22]): 0.006 nm
Response Shift (hMPV063 (hMPV A), Q6WB98): -0.008 nm
Response Shift (hMPV066 (hMPV A), Q6WB98 [23]): -0.003 nm
Response Shift (hMPV067 (hMPV A), Q6WB98 [24]): -0.041 nm
Response Shift (hMPV068 (hMPV A), Q6WB98 [25]): 0.002 nm
Response Shift (hMPV069 (hMPV A), Q6WB98): -0.003 nm
Response Shift (hMPV071 (hMPV A), Q6WB98): -0.039 nm
Response Shift (hMPV075 (hMPV A), Q6WB98): -0.069 nm
Response Shift (hMPV077 (hMPV A), Q6WB98 [26]): -0.041 nm
Response Shift (hMPV079 (hMPV A), Q6WB98): 0.861 nm
Response Shift (hMPV081 (hMPV A), Q6WB98): 0.915 nm
Response Shift (hMPV082 (hMPV A), Q6WB98): 0.985 nm
Response Shift (hMPV088 (hMPV A), Q6WB98): 0.937 nm
Response Shift (hMPV097 (hMPV A), Q6WB98): 0.935 nm
